Measurements published in patent WO2014171532A1 (dated 2014).
Positions count from the first letter of the chain named. Values belong to the binder of their own block, whether it stands above or below them.

Assays:
[1] = target: T1, human sTWEAK protein (Peprotech, 310-06) (human, UniProt O43508 97-249); test: ELISA, sTWEAK immobilised at 0.5 μg/mL, antibody 80 nM to 0.0000003 nM, chemiluminescence
T1 construct: Bought protein; also called soluble type TWEAK; ヒトsTWEAK
T1 sequence: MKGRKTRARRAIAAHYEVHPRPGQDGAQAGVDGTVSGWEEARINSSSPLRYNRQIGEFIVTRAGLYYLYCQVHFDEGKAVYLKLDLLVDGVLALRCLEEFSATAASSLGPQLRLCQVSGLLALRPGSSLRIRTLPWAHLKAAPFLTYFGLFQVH

[2] = target: T2, human mTWEAK variant expressed on HEK293 cells (human, UniProt O43508 1-249); test: flow cytometry (BD FACSArray) on HEK293 cells transfected with human mTWEAK vector, antibody 80 nM to 0.001355 nM, MFI
T2 construct: also called human mTWEAK mutant; membrane type TWEAK
T2 sequence: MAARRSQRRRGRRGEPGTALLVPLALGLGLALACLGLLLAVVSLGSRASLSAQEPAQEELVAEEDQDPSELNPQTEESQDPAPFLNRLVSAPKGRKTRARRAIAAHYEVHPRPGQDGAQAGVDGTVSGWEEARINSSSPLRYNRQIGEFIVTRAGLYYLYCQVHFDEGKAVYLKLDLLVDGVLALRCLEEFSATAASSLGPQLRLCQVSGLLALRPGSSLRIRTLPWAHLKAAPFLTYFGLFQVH

[3] = target: T2, human mTWEAK variant expressed on …; test: hybridoma screening (Examples 3-6)
[4] = target: T1, human sTWEAK protein (Peprotech, 310-06); test: hybridoma screening, antigen ELISA on immobilised sTWEAK (Examples 3-6)

B3: fully human TBA3-35.1 (antibody, human IgG1, kappa, V domains shown)
VH: EVQLLESGGGLVQPGGSLRLSCAASGFTFSSYAMSWVRQAPGKGLEWVSAIGNSGFYTHYADSVKGRFTISRDNSKNTLYLQMNSLRAEDTAVYYCAKVGIAVVGDYYQFGMDVWGQGTTVTVSS
VL: DIQMTQSPSSLSASVGDRVTITCRASQGIRNDLGWYQQKPGKAPKLLIYGASSLQSGVPSRFSGSGSGTDFTLTISSLQPEDFATYYCLQDYNYPWTFGQGTKVEIKR
binding result [1]: binds
binding result [2]: binds

B4: TBA4-1 (chimeric antibody) (antibody, V domains shown)
VH: QVQLVESGGGVVQPGRSLRLSCAASGFTFSSYGMHWVRQAPGKGLAWVAIISSDGNNKYYIDSVKGRFTISRDNSKNTLYLQMNNLRAEDTAVYYCAKDSHISIFGAVDSWGQGTLVTVSS
VL: B3 VL with D1A, G28A, G50A
binding result [3]: binds
binding result [4]: binds

Continued, values first:

binding result [1]: binds
binding result [2]: binds
B1: fully human TBA3-25 (antibody, human IgG1, kappa, V domains shown)
VH: QVQLVQSGAEVKKPGASVRVSCKVSGYTLIDLSMHWVRQAPGNGLEWMGGFDPENGEKIYAEKFQGRVTMTEDTSTDTAYMDLSSLRSEDTAVYYCASGYSYGHFDYWGQGTLVTVSS
VL: DIQMTQSPSTLSASVGDRVTITCRASQNIGRWLAWYQQKPGKAPNLLIYKASRLESGVPSRFSGSGSGTEFTLTITSLQPDDFATYYCQQYNRYSRTFGQGTKVEIKR
modifications: in most of the purified antibody: N-terminal glutamine (amino acid 1) modified to pyroglutamic acid; C-terminal lysine (amino acid 448) deleted
notes: Human variable regions of TBA3-25 joined to human Ig gamma1 and human kappa constant regions; Analysis of the purified antibody found pyroglutamate at the heavy chain N-terminus and loss of the heavy chain C-terminal lysine in most of it; also called fully human antibody of TBA3-25; 完全ヒト型TBA3-25

binding result [1]: binds
binding result [2]: binds
B2: fully human TBA4-1 (antibody, human IgG1, kappa, V domains shown)
VH: B4 VH
VL: B3 VL with D1A, G28A, G50A
notes: Human variable regions of TBA4-1 joined to human Ig gamma1 and human kappa constant regions; also called fully human antibody of TBA4-1; 完全ヒト型TBA4-1
